Measured values: patent US20250172552A1 (ANN AND ROBERT H LURIE CHILDREN S HOSPITAL OF CHICAGO, published 2025)
Where two headings read alike, the source gives them in different places.

What was measured:
KDpeptide3 [1] = molecular target: T1, KDpeptide3; assay: ELISA on coated synthetic peptide
T1 construct: Synthetic peptide (Anaspec) coated on ELISA plates at 800 ng per well; also the base peptide of substitution scans; also called Kdpep3; KD3
T1 peptide: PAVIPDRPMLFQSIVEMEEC

KDpeptide2 [2] = molecular target: T2, KDpeptide2; assay: ELISA on coated synthetic peptides, direct comparison
T2 construct: Synthetic peptide (Anaspec) coated on ELISA plates at 800 ng per well
T2 peptide: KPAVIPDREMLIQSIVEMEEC

KDpeptide2 [3] = molecular target: T2, KDpeptide2; assay: ELISA on coated synthetic peptide
KDpeptide3 [4] = molecular target: T1, KDpeptide3; assay: ELISA on coated synthetic peptide

B1: KD10-1G3 (antibody, V domains shown)
VH: EVQLVESGGGLVQPGGSLKLSCAASGFSFSGAAMHWVRQSSGRGLEWLGRIRSKTNDYATAYAESLHGRFTISRDDAKNTAYLQMNRLKSEDTAIYYCTTVLSKGDHAVWLGPWGPGTLVTV
VL: QPVLTQPPSSSASPGESARLTCTLPSDISVAASDIYWYQQKAGSPPNFLLYDPSDSHKGQDSGVPSRFSGSRDGSANSGFLLISGVQSEDEADYYCMVWPPNTVGVVFGGGTTLTV
Does B1 bind (KDpeptide3 [1])?
Result: binds

Does B1 bind (KDpeptide2 [2])?
Result: binds

B2: KD11-2E4 (antibody, V domains shown)
VH: EVQLVESGGGVVQPGESLRLSCAASGVTFSSYWMHWVRQVPGKGLVWVARINIDGTSTTYADCVKGRFTISRDNAKNTLYLQMSSLRAEDTAVYYCATERGLLSGGRWHSSHFDYWGQGTLVTVS
VL: DIQMTQSPSTLSASVGDRVTITCRASQSISSWLAWYQQKPGKAPKVLIYKTSSLESGVPSRFSGSGSGTEFTLTISSLQPDDFATYYCQQYDSSSLTWTFGQGTKVEIK
Does B2 bind (KDpeptide3 [1])?
Result: binds

Does B2 bind (KDpeptide2 [2])?
Result: binds

B3: KD9-2H6 (antibody, V domains shown)
VH: EVQLVESGGGLVKPGESLRLSCVGSGFTLTNAWMIWVRQTSGKGLEWVGRIKSKIDGGAIDYGAPVKGRFTISRDDTKNTVYLQMNSLQTDDTGVYFCTTDRYSTGYYGMDDYWGQGTLVTV
VL: SYELTQPPSVSVSPGQTATITCSGDKLGDKYSFWYQQKPGQSPVVVIYQDSKRPSGIPERFSGSNSGNTATLTISGTQAMDEADYYCQVWDTDSAVFGTGTRVTV
Does B3 bind (KDpeptide2 [3])?
Result: no binding

Does B3 bind (KDpeptide3 [4])?
Result: no binding

B4: KD5-2D7 (antibody, V domains shown)
VH: EVQLVESGGGLVQPGGSLGLSCAASGFTFSNYWMHWVRQAPGKGLVWVSRINSDGSDTSYADSVKGRFTISRDNAENTLYLHMSSLRAEDTAVYYCARELGYGDYGMDVWGKGTTVTVS
VL: QSVLTQPPSASGTPGQRVTISCSGSSSNIGSHSVIWYQQLPGTAPKLLVYSDNQRPSGVPDRFSGSKSGTSASLAISGLQSEDEADYYCAAWDDSLNHLHVVFGGGTKLTVL
Which results are given for B4?
binding result (KDpeptide3 [1]): binds; binding result (KDpeptide2 [2]): binds

B5: KD1-1H8 (antibody, V domains shown)
VH: EVQLVESGGGSVQPGGSLRLSCAASGFTFSNYWMHWVRQAPGKGLVWVSRLNIDGSNTFYADSVKGRFTISRDNAKNTLYLQMNSLRAEDTAVYYCVRGGSDSGDSVPFDLWGRGTLVTVS
VL: EIVMTQSPATLSVSPGERATLSCRASQSVSSNLAWYQQNPGQAPRLLIYGASTRATGIPARFSGSGSGTEFTLTISSLQSEDFAVYYCQHYNNWPFTFGQGTKVEIK
Does B5 bind (KDpeptide3 [1])?
Result: binds

Does B5 bind (KDpeptide2 [2])?
Result: binds

B6: KD12-1G7 (antibody, V domains shown)
VH: EVQLVESGGGLVQPGGSLRLSCGASGFTVSGKYMTWARQAPEKGLEWVSAIYRGGGTYYADSVKGRFTISRDNSKNMLYLQMNSLRAEDTAVYYCGGSVMVSATDYWGQGTLVTV
VL: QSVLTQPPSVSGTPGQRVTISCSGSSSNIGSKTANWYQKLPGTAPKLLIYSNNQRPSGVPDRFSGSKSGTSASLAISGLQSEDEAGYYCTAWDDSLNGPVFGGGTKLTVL
Does B6 bind (KDpeptide3 [1])?
Result: binds

B7: KD10-1A8 (antibody, V domains shown)
VH: EVQLVESGGGLVQPGGSLRLSCAASGFTFSSYWMEWVRQAPGKGLVWVSHISSDGSVTRYVDSVKGRFTISRDNAKNTLYLQMNSLRAEDTGVYYCAKDLHWNALDVWGQGTMVTVS
VL: DIVMTQTPLSLSVTPGQPASISCKSSQSLLHNDGKTFLHWYLQKPGQSPQLLIYEVSSRFSGVPDRFSGSGSGTDFTLKISRVEAEDVGVYYCMQGIHLPPTFGGGTKVEIKR
Does B7 bind (KDpeptide3 [1])?
Result: binds

B8: KD7-2H5 (antibody, V domains shown)
VH: EVQLVESGGGLVQPGGSLRLSCAASGFTFSSYWMHWVRQAPGKGLVWVSRINSDGSSTSYADSVKGRFAISRDNAKNTLYLQMNSLRAEDTAVYYCARALGGWDIDYWGQGTLVTVS
VL: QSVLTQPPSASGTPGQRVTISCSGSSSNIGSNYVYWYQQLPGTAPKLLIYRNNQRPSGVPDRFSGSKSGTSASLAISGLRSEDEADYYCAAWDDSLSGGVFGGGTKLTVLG
Does B8 bind (KDpeptide3 [1])?
Result: binds

Does B8 bind (KDpeptide2 [2])?
Result: binds

B9: KD1-2B1 (antibody, V domains shown)
VH: EVQLVESGGGLVQPGGSLRLSCAASGFTFSSYWMHWVRQAPGKGLVWVSRINNDGSSTGYADSVEGRFTISRDNAKNTLYLQINSLRAEDTAVYYCARQDGHYYYSMDVWGQGTTVTV
VL: QSALTQPRSVSGSPGQSVTISCTGTSSDVGGYNYVSWYQQHPGKAPKLMIYDVSERPSGVPARFSGSKSGNTASLTISGLQAEDEADYYCCSYAGNFRWVFGGGTKLTVL
Does B9 bind (KDpeptide3 [1])?
Result: binds

Does B9 bind (KDpeptide2 [2])?
Result: binds

B10: KD7-1B5 (antibody, V domains shown)
VH: VQLVESGGGVVQPGRSLRLSCEASGFTFRSRAMHWVRQAPGKGLGWVAVIWYDGSNKYYADSVKGRFTISRDNSRNTLYLQMNSLRAEDTAVYYCARDLGSGFSLDYWGQGTLVTVS
VL: QSVLTQPPSVSAAPGQKVTISCSGSSSNIGNNYVSWYQQLPGTAPKLLIYDNNKRPSGIPDRFSGSKSGTSATLGITGLQTGDEADYYCGTWDSSLSAEVFGGGTKLTVLG
Which results are given for B10?
binding result (KDpeptide3 [1]): binds; binding result (KDpeptide2 [2]): binds

B11: KD3-1C10 (antibody, V domains shown)
VH: EVQLVESGGGLVQPGGSLRLSCAASGFTFSNHWMHWVRQAPGKGLLWVSRIDTGGSTTNYADSVKGRFTISRDSAKNTVYLQMNSLRAEDTAVYYCARGGLFYYGMDVWGQGTTVTV
VL: EIVLTQSPGTLSLSPGERATLSCRASQTSSSTSLAWYQQKRGQAPRLLIYGASRRATGIPDRFSGSGSGTDFTLTISRLEPEDFAVYYCQQFSGSPAYTFGQGTKVEIK
Does B11 bind (KDpeptide3 [1])?
Result: binds

B12: KD12-2A10 (antibody, V domains shown)
VH: EVQLVESGGGLVKPGGSLRLSCAASGFTFINAWMNWVRQAPGKGLEWVGLIKSKTDGGTIDYAAPVKGRFTISRDDSEKMLYLQMDSLKTEDTAVYYCTTMYGWKDARDYWGQGTLVTV
VL: EIVLTQSPGTLSLSPGERATLSCRASQSVSSNLAWYQQKPGQAPRVLIYGASSRATGIPDRFSGSRSGTDFTLTISRLEPEDFAVYYCQRYDNSPRTFGQGTKVEIK
Does B12 bind (KDpeptide3 [1])?
Result: binds

B13: KD2-1D10 (antibody, V domains shown)
VH: EVQLVESGGGLIHPGGSLRLSCAASGFTFSSYWMHWVRQAPGKGLVWVSHIKSDGSNTIYADSVKGRFTISRDNAKNTLYLQMNSLRAEDTAVYYCGRGRSLTPRSAIDYWGQGTLVTV
VL: QSALTQPPSASGSPGQSVTITCTGTSSDVGGYNYVSWYQQHPGKAPKLMIYEVSKRPSGVPDRFSGSKSGNTASLTVSGLQAEDEADYHCSSFAGDNNSPVFGGGTKLTVL
Which results are given for B13?
binding result (KDpeptide3 [1]): binds; binding result (KDpeptide2 [2]): binds

B14: KD9-2A4 (antibody, V domains shown)
VH: LVESGGGLVQPGGSLRLSCAASGFTFSSYAMHWVRQAPGKGLEFASAISSDGGTTYYANSVKGRFTISRDNSKNTLYLQMGSLRDEDMAVYYCARDDLSTSWDLDYWGQGTLVTV
VL: QSALTQPASVSGSPGQSITISCTGTSSDVGGYNYVSWYQQHPGKAPKLMIYDVSNRPSGVSNRFSGSKSGNTASLTISGLQAEDEADYYCSSYTISSTNVFGTGTKVTVL
Does B14 bind (KDpeptide2 [3])?
Result: no binding

Does B14 bind (KDpeptide3 [4])?
Result: no binding
